This assay deals with AVR-Pii effector domain (residues 20 to 70), purified (Magnaporthe oryzae). Briefly: ITC. On the technique in general: In ITC the heat of successive injections is recorded.

B1: OsExo70F2, N-terminally truncated, purified (domain or fragment)
chain: ISAAAFDAAEQLIQVWDGTPEALVFEATEDEVAEYLSAVDVAIEHLARGSGGGAGGAGSSSSSTAGRAGVAVQLAMARLEEELRHLMVRHAVPLDPTGLFFSLRRLSLGSMDDLDTSSEFDAATPHSIDVAPETARGGPLVNPFEDQVFDPVRPEAVDDLRAIADRMARAGYSRELADAYCGIRRDLLDEYLSALGVERLSIDEVQRIEWKHLNDKMKKWVQAVKTVVRVLLAGERRLCDQVLSVSDELREECFIESTKGCIMQILSFGDAVAVCPRSPEKLSRILDMYEALAEVIPEMKDLCLGSSGDGVISDVQANLDRLGDAIRGTLFEFGKVLQLESSRRAMTAGEIHPMTRYVMNYLRLLVVYSDTLDALLDDNADDQIDLARAEDQDQEHLESMTPLGKRLLKLISYLEANLEEKSKLYEDSALECIFSMNNLLYIVQKVRDSELGKILGDHWVKRRNGKIRQYSKSYLRISWMKVLSFLKDDGHGSGSGSSSGSGSGHSSSRMSIKEKFKNFNLAFEEIYRNQTTWKVPDPQLREELKISISENVIPAYRAFLGRYGSQVDGGRNSGKYIKYTPEDLESQLSDLFEGAPGPANHSRRRT
By Kd is commonly meant the concentration at which binding is half-saturated. Read a low Kd as a tighter complex. Take B1: the Kd was < 1 nM.

The values are drawn from publication PMC9618136 (2022).
